Experimental data as given in paper PMC5384453, “A multi-functional PEGylated gold(III) compound: potent anti-cancer properties and self-assembly into nanostructures for drug co-delivery” (Chemical Science, 2016).

Experiments:
[1] = mouse
Method: The anti-tumor experiments using mice were approved by the animal ethics committees of Jinan University and The University of Hong Kong. […]
(§1) point of tumor growth inhibition study, the mice treated with complex 1, 3 and Au1a, respectively, were sacrificed and tissues including liver, spleen, lung, kidney and heart were harvested. The tissues were digested with 10% HCl in concentrated HNO3 (0.1 g of tissue/1 mL). The solution mixture was heated at 60 °C for 15 h, and then diluted 50 times by ultra-pure water for ICP-MS analysis.
(§2) Determination of in vivo biodistribution of complex 1, 3 and Au1a by ICP-MS.
(§3) Nude mice bearing HCT116 xenografts were treated with 1 (13 mg/kg), or equal molar amount of Au1a (2 mg/kg) or 3 (2 mg/kg) through intravenous injection. After 24 h of the injection, the mice were sacrificed and tissues from tumor, liver, spleen, lung, kidney and heart were harvested. The tissues were digested with 10% HCl in concentrated HNO3 (0.1 g of tissue/1 mL). The solution mixture was heated at 60 °C for 15 h, and then diluted 50 times by ultra-pure water for ICP-MS analysis.
Analysis of tumor tissue from mice treated with complexes 1 by UPLC-QTOF-MS. At the end point of tumor growth inhibition study, the mice treated with solvent control or complex 1 were sacrificed and the tumor tissues were harvested, followed by homogenization in 50% ice-cold acetonitrile (0.1 g/300 µL). […]

NCM460 cells = test: Co-culture model of HCT116 and NCM460, FITC-Annexin V flow cytometry; format: cell-based, human; details: CMF2HC-stained NCM460 in co-culture with HCT116, 2 μM, 24 h
Method: (§4) To further verify the ability of 1 to selectively induce apoptosis of HCT116 cells over NCM460 cells, HCT116 and NCM460 cells were co-cultured and incubated with 1 for 24 h, and then stained with FITC-Annexin V and propidium iodide. In order to differentiate the two different cell lines, NCM460 cells were pre-treated with blue-emissive CMF2HC dye prior to its co-culture with HCT116 cells. […] In a parallel experiment, co-cultured cells treated with 1 for 24 h and stained with FITC-Annexin V and propidium iodide were imaged by fluorescence microscopy (Fig. 4a). Green and red fluorescence were primarily observed in cells without showing blue luminescence, i.e. HCT116 cells. […] The results of both the fluorescence microscopy and flow cytometry support the high selectivity of 1 on killing colon cancer cells in the co-culture model of cancer and normal cells.
(§5) atmosphere of 5% CO2. After reaching 80% confluency, the culture medium was
(§6) of 5% CO2 for 45 min. The solution was then removed. The stained NCM460 cells
(§7) the procedure described above.
(§8) right fore of BALB/c nude mice. When the tumor volume reached 70 mm3 after […]

HCT116 cells = test: as above; format: cell-based, human; details: HCT116 in co-culture with CMF2HC-stained NCM460, 2 μM, 24 h
Method: as §4, §5, §6, §7, §8

[2] = In vivo biodistribution by ICP-MS in nude mice bearing HCT116 xenografts; details: single-dose i.v., 24 h post-treatment
Text: Significant pulmonary hemorrhage in the alveoli and a thickening of alveolar walls were found. Also, apoptotic hepatocytes and swollen renal epithelial cells were found, leading to subsequent shrinkage of kidney tubules. […] The lower systemic toxicity of 1 can be explained by the lower accumulation of 1 in the organs of mice treated at its effective dosage, as compared to that of 3 and Au1a (Fig. S23 ^†). […] This can be attributable to the nanostructures of 1, which may lead to in vivo tumor accumulation by the EPR effect.[55] […]
as §1, §2
as §3, with “The solution mixture was heated at 60 °C for 15 h, and then diluted 50 times by ultra-pure water for ICP-MS analysis.” left out

Substance: [Au(TPP–COO–PEG5000–OCH3)]Cl [Compound 1]
- hydrolysis in vivo (species found in tumor tissues) [1]: [Au(TPP–COOH)]^+ was found in the UPLC-QTOF-MS of tumor tissues
- cells undergoing apoptosis (FITC-Annexin V, corrected) (NCM460 cells): 1.87%
- cells undergoing apoptosis (FITC-Annexin V, corrected) (HCT116 cells): 20.6%
- higher accumulation in tumor compared to mice treated with 3 ([2]; equal molar amount (1 13 mg kg^–1, 3 2 mg kg^–1)): 2.0 fold
- higher accumulation in tumor compared to mice treated with Au1a ([2]; equal molar amount (1 13 mg kg^–1, Au1a 2 mg kg^–1)): 3.3 fold
